From PMC2756588

T1: Bzz1-2, P38822
T1 sequence (P38822 568-633, looked up): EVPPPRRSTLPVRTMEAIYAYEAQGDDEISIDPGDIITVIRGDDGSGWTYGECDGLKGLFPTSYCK

T2: Sla1-3, P32790
T2 sequence (P32790 344-424, looked up): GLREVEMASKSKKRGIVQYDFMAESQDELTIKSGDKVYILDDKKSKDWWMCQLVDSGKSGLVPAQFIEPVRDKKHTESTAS

T3: Cdc25, P04821
T3 sequence (P04821 50-136, looked up): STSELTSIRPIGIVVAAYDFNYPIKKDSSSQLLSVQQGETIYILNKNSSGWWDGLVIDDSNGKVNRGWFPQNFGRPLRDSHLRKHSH

T4: Lsb3, P43603
T4 sequence (P43603 385-451, looked up): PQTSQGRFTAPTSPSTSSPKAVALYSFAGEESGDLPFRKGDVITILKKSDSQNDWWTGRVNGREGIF

T5: Fus1, P11710
T5 sequence (P11710 432-512, looked up): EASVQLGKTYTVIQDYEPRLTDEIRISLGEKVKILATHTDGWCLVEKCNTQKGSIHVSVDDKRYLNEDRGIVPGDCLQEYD

T6: Sla1-2, P32790
T6 sequence (P32790 60-140, looked up): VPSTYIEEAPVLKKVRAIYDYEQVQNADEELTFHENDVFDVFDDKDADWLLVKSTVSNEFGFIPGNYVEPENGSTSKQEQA

T7: Bzz1-1, P38822
T7 sequence (P38822 478-572, looked up): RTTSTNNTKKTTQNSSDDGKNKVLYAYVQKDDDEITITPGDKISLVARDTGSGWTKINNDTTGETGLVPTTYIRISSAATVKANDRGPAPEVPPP

T8: Hof1, Q05080
T8 sequence (Q05080 590-669, looked up): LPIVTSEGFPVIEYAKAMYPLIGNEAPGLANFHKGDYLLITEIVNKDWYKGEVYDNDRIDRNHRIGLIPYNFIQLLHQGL

T9: Pin3, Q06449
T9 sequence (Q06449 53-122, looked up): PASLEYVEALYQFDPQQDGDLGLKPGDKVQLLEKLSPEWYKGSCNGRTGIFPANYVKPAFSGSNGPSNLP

T10: Myo5, Q04439
T10 sequence (Q04439 1072-1160, looked up): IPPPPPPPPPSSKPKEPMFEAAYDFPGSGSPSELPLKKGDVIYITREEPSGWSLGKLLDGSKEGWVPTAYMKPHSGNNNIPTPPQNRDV

T11: Boi1, P38041
T11 sequence (P38041 1-86, looked up): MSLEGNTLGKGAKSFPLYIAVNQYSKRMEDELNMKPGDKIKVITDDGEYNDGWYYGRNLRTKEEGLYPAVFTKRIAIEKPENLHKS

T12: Lsb4, P32793
T12 sequence (P32793 402-468, looked up): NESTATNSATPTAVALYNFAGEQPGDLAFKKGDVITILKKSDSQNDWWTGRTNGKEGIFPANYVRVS

T13: Pex13, P80667
T13 sequence (P80667 295-386, looked up): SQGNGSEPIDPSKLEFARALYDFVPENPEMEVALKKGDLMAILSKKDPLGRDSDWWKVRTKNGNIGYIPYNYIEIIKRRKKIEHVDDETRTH

T14: Abp1, P15891
T14 sequence (P15891 535-592, looked up): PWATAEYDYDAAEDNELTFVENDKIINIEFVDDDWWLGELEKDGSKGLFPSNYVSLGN

T15: Lsb1, P53281
T15 sequence (P53281 45-122, looked up): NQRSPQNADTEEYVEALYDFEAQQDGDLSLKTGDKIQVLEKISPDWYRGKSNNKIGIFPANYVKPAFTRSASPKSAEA

T16: Bud14, P27637
T16 sequence (P27637 247-328, looked up): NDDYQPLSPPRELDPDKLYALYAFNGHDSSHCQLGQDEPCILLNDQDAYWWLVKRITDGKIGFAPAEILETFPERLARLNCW

T17: Nbp2, Q12163
T17 sequence (Q12163 103-180, looked up): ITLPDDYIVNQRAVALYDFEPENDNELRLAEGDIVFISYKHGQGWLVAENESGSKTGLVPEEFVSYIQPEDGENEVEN

T18: Cyk3, Q07533
T18 sequence (Q07533 1-83, looked up): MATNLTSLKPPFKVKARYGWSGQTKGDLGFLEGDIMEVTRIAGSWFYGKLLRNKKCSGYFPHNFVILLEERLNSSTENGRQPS

T19: Boi2, P39969
T19 sequence (P39969 32-116, looked up): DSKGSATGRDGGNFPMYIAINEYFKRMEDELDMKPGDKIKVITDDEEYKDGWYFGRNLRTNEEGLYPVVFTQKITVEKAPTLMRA

T20: Bbc1, P47068
T20 sequence (P47068 1-78, looked up): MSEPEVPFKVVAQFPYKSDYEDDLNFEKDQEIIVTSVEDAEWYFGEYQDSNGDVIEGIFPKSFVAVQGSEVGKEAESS

T21: Hse1, P38753
T21 sequence (P38753 208-285, looked up): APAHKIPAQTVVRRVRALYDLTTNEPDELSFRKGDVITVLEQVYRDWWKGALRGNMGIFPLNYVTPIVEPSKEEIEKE


Biological target: T1, Bzz1-2, P38822
Test: SPOT array
Conditions: median of control spots 4538

For RPKRRAPPPVPKKPS, which SPOT intensity is on record?
The SPOT intensity was 2580.

For RAPPPVPKKPSSRIA, which SPOT intensity is on record?
Its SPOT intensity is 590.

Biological target: T2, Sla1-3, P32790
Test: SPOT array
Conditions: median of control spots 5475

RPKRRAPPPVPKKPS was tested. Which SPOT intensity did it give?
The SPOT intensity was 2980.

For RAPPPVPKKPSSRIA, which SPOT intensity is on record?
Its SPOT intensity is 155.

Biological target: T3, Cdc25, P04821
Test: SPOT array
Conditions: median of control spots 969

How did the SPOT intensity turn out when RPKRRAPPPVPKKPS was run?
The SPOT intensity was 12.

With RAPPPVPKKPSSRIA as the binder, how does the SPOT intensity read?
The SPOT intensity was 2.

Biological target: T4, Lsb3, P43603
Test: SPOT array
Conditions: median of control spots 406

How did the SPOT intensity turn out when RPKRRAPPPVPKKPS was run?
The SPOT intensity was 298.

RAPPPVPKKPSSRIA was tested. Which SPOT intensity did it give?
The SPOT intensity was 415.

Biological target: GST
Test: SPOT array
Conditions: median of control spots 978

RPKRRAPPPVPKKPS was tested. Which SPOT intensity did it give?
Its SPOT intensity is 6.

RAPPPVPKKPSSRIA was tested. Which SPOT intensity did it give?
The SPOT intensity was 1.

Biological target: T5, Fus1, P11710
Test: SPOT array
Conditions: median of control spots 1200

Which SPOT intensity does the source give for RPKRRAPPPVPKKPS here?
The SPOT intensity was 6.

RAPPPVPKKPSSRIA was tested. Which SPOT intensity did it give?
The SPOT intensity was 0.

Biological target: Rvs167, P39743
Sequence (P39743 419-482): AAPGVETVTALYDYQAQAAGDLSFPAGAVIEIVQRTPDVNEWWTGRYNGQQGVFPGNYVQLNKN
Test: SPOT array
Conditions: median of control spots 2707

With RPKRRAPPPVPKKPS as the binder, how does the SPOT intensity read?
The SPOT intensity was 99.

How did the SPOT intensity turn out when RAPPPVPKKPSSRIA was run?
Its SPOT intensity is 45.

Biological target: T6, Sla1-2, P32790
Test: SPOT array
Conditions: median of control spots 712

Which SPOT intensity does the source give for RPKRRAPPPVPKKPS here?
Its SPOT intensity is 2.

How did the SPOT intensity turn out when RAPPPVPKKPSSRIA was run?
The SPOT intensity was 0.

Biological target: Myo3, P36006
Test: SPOT array
Conditions: median of control spots 468

With RPKRRAPPPVPKKPS as the binder, how does the SPOT intensity read?
The SPOT intensity was 491.

With RAPPPVPKKPSSRIA as the binder, how does the SPOT intensity read?
The SPOT intensity was 233.

Biological target: T7, Bzz1-1, P38822
Test: SPOT array
Conditions: median of control spots 4446

RPKRRAPPPVPKKPS was tested. Which SPOT intensity did it give?
The SPOT intensity was 480.

For RAPPPVPKKPSSRIA, which SPOT intensity is on record?
The SPOT intensity was 435.

Biological target: Sho1, P40073
Sequence (P40073 287-367): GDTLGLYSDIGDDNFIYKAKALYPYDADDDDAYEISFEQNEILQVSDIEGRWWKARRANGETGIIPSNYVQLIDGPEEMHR
Test: SPOT array
Conditions: median of control spots 1148

For RPKRRAPPPVPKKPS, which SPOT intensity is on record?
The SPOT intensity was 487.

For RAPPPVPKKPSSRIA, which SPOT intensity is on record?
Its SPOT intensity is 509.

Biological target: T8, Hof1, Q05080
Test: SPOT array
Conditions: median of control spots 4086

RPKRRAPPPVPKKPS was tested. Which SPOT intensity did it give?
Its SPOT intensity is 2.

With RAPPPVPKKPSSRIA as the binder, how does the SPOT intensity read?
Its SPOT intensity is 4.

Biological target: T9, Pin3, Q06449
Test: SPOT array
Conditions: median of control spots 2171

With RPKRRAPPPVPKKPS as the binder, how does the SPOT intensity read?
Its SPOT intensity is 9.

Which SPOT intensity does the source give for RAPPPVPKKPSSRIA here?
Its SPOT intensity is 37.

Biological target: T10, Myo5, Q04439
Test: SPOT array
Conditions: median of control spots 471

RPKRRAPPPVPKKPS was tested. Which SPOT intensity did it give?
The SPOT intensity was 232.

RAPPPVPKKPSSRIA was tested. Which SPOT intensity did it give?
The SPOT intensity was 15.

Biological target: T11, Boi1, P38041
Test: SPOT array
Conditions: median of control spots 1162

For RPKRRAPPPVPKKPS, which SPOT intensity is on record?
The SPOT intensity was 3.

How did the SPOT intensity turn out when RAPPPVPKKPSSRIA was run?
The SPOT intensity was 0.

Biological target: Bem1-2, P29366
Sequence (P29366 139-227): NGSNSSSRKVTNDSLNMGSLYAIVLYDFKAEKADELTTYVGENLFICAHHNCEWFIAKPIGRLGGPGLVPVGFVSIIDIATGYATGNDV
Test: SPOT array
Conditions: median of control spots 4347

How did the SPOT intensity turn out when RPKRRAPPPVPKKPS was run?
Its SPOT intensity is 497.

For RAPPPVPKKPSSRIA, which SPOT intensity is on record?
The SPOT intensity was 592.

Biological target: T12, Lsb4, P32793
Test: SPOT array
Conditions: median of control spots 397

For RPKRRAPPPVPKKPS, which SPOT intensity is on record?
Its SPOT intensity is 129.

RAPPPVPKKPSSRIA was tested. Which SPOT intensity did it give?
The SPOT intensity was 180.

Biological target: T13, Pex13, P80667
Test: SPOT array
Conditions: median of control spots 1341

RPKRRAPPPVPKKPS was tested. Which SPOT intensity did it give?
Its SPOT intensity is 42.

Which SPOT intensity does the source give for RAPPPVPKKPSSRIA here?
Its SPOT intensity is 395.

Biological target: T14, Abp1, P15891
Test: SPOT array
Conditions: median of control spots 935

With RPKRRAPPPVPKKPS as the binder, how does the SPOT intensity read?
Its SPOT intensity is 555.

RAPPPVPKKPSSRIA was tested. Which SPOT intensity did it give?
The SPOT intensity was 673.

Biological target: T15, Lsb1, P53281
Test: SPOT array
Conditions: median of control spots 388

With RPKRRAPPPVPKKPS as the binder, how does the SPOT intensity read?
Its SPOT intensity is 1450.

How did the SPOT intensity turn out when RAPPPVPKKPSSRIA was run?
Its SPOT intensity is 1600.

Biological target: T16, Bud14, P27637
Test: SPOT array
Conditions: median of control spots 956

RPKRRAPPPVPKKPS was tested. Which SPOT intensity did it give?
The SPOT intensity was 6.

With RAPPPVPKKPSSRIA as the binder, how does the SPOT intensity read?
Its SPOT intensity is 3.

Biological target: Bem1-1, P29366
Sequence (P29366 55-141): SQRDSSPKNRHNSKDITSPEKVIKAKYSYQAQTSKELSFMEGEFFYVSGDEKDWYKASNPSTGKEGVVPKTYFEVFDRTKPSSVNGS
Test: SPOT array
Conditions: median of control spots 4282

Which SPOT intensity does the source give for RPKRRAPPPVPKKPS here?
Its SPOT intensity is 0.

Which SPOT intensity does the source give for RAPPPVPKKPSSRIA here?
The SPOT intensity was 0.

Biological target: T17, Nbp2, Q12163
Test: SPOT array
Conditions: median of control spots 357

RPKRRAPPPVPKKPS was tested. Which SPOT intensity did it give?
Its SPOT intensity is 887.

For RAPPPVPKKPSSRIA, which SPOT intensity is on record?
Its SPOT intensity is 1050.

Biological target: T18, Cyk3, Q07533
Test: SPOT array
Conditions: median of control spots 1451

RPKRRAPPPVPKKPS was tested. Which SPOT intensity did it give?
The SPOT intensity was 2.

Which SPOT intensity does the source give for RAPPPVPKKPSSRIA here?
The SPOT intensity was 0.

Biological target: T19, Boi2, P39969
Test: SPOT array
Conditions: median of control spots 1161

For RPKRRAPPPVPKKPS, which SPOT intensity is on record?
The SPOT intensity was 1.

Which SPOT intensity does the source give for RAPPPVPKKPSSRIA here?
Its SPOT intensity is 0.

Biological target: T20, Bbc1, P47068
Test: SPOT array
Conditions: median of control spots 796

For RPKRRAPPPVPKKPS, which SPOT intensity is on record?
Its SPOT intensity is 487.

How did the SPOT intensity turn out when RAPPPVPKKPSSRIA was run?
The SPOT intensity was 116.

Biological target: T21, Hse1, P38753
Test: SPOT array
Conditions: median of control spots 1727

RPKRRAPPPVPKKPS was tested. Which SPOT intensity did it give?
Its SPOT intensity is 310.

For RAPPPVPKKPSSRIA, which SPOT intensity is on record?
Its SPOT intensity is 857.
